Reference: patent US20120094898A1, “PEPTIDE DERIVATIVE” (Takeda Pharmaceutical Company Limited, priority 2010, published 2012)
Non-standard residues stand in square brackets, D forms with d. Primed or numbered codes have the meaning given here. *: point of attachment. Acetyl(2-(piperazin-1-yl)) = O=C(CN1CCNCC1)*; 2Nal = N[C@@H](Cc1ccc2ccccc2c1)C(=O)O; Pic(4) = not defined here; NMeA = CN[C@@H](C)C(=O)O; Ahx = NCCCCCC(=O)O

Legend:
human NMUR1 = molecular target: T1, human NMUR1 (Homo sapiens, UniProt Q9HB89); experiment: Ca influx assay using CHO cells expressing human NMUR1; assay type: cell-based; conditions: CHO cells stably expressing human NMUR1; intracellular Ca elevation, FLIPR Tetra; relative to 1 μM porcine NMU-8; read-out: hNMUR1 EC50
T1 construct: expressed in transfected cells
T1 sequence (Q9HB89 1-426): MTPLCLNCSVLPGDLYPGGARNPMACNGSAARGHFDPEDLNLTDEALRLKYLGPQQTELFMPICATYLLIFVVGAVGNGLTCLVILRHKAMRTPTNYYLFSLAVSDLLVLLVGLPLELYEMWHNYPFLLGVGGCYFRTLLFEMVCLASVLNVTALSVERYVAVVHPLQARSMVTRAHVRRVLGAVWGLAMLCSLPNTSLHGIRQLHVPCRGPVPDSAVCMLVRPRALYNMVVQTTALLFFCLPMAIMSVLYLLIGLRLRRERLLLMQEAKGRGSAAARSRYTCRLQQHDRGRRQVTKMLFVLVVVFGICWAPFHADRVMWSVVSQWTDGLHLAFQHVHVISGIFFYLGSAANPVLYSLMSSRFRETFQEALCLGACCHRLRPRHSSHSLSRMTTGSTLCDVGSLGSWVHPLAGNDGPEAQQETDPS
Method: (§1) Ca Influx Assay Using CHO Cells Expressing Human NMUR1 or NMUR2
(§2) CHO cells stably expressing human NMUR1 or NMUR2 (J Biol Chem 275(28), pp. 21068-21074 (2000); and J Biol Chem 275(38), pp. 29528-29532 (2000)) were seeded onto a 384-well black/clear plate (Becton Dickinson) (10,000 cells per well) using nucleic acid-free MEM-α medium (Nikken Bio Medical Laboratory) containing 10% dialyzed blood serum (Gemini Bio Products) and 50 μg/mL gentamycin (Invitrogen), and cultured overnight in 5% carbon dioxide at 37° C. Then, after removal of the medium, the cells were loaded with Calcium Kit-Fluo 4 (Dojindo) containing 0.1% fatty acid-free BSA (Wako) at 37° C. (for 15 minutes). Further, test compounds at each concentration, as well as 1 μmol/L porcine NMU-8 (BACHEM) as a control group, were added to the cells, and an elevation of intracellular Ca concentration was monitored for 3 minutes using a FLIPR Tetra system (Molecular Devices). The agonist activity (%) of each of the test compounds for NMUR was calculated using the following formula: […]
(§3) wherein W represents a fluorescence value based on the intracellular Ca concentration in cells to which each test compound was added; X represents a fluorescence value based on the intracellular Ca concentration in cells to which only 0.1% DMSO was added; and Y represents a fluorescence value based on the intracellular Ca concentration in cells to which 1 μM porcine NMU-8 was added. The EC50 value of each test compound was calculated using Prism 5 (GraphPad).

human NMUR2 = molecular target: T2, human NMUR2 (Homo sapiens, UniProt Q9GZQ4); experiment: Ca influx assay using CHO cells expressing human NMUR2; assay type: cell-based; conditions: CHO cells stably expressing human NMUR2; intracellular Ca elevation, FLIPR Tetra; relative to 1 μM porcine NMU-8; read-out: hNMUR2 EC50
T2 construct: expressed in transfected cells
Method: as §1, §2, §3

male C57BL/6J mice = experiment: Subcutaneous administration test in mice (anorectic activity, food intake); assay type: in vivo; conditions: 600 nmol/kg/day subcutaneous, food intake 1 day after initiation of administration, vs solvent control
Method: Subcutaneous Administration Test in Mice Anorectic activity of the test compounds was evaluated by the following method. Each of the test compounds was dissolved in a solvent (physiological saline), and an amount of 600 nmol/kg/day was used. An amount of 2 mL/Kg of an administration liquid obtained by dissolving each test compound in physiological saline was subcutaneously administered to the back of 9- to 10-week-old male C57BL/6J mice (CLEA Japan, Inc.) (at 25° C., having free access to food and water, 12 hours of light period and 12 hours of dark period). After the administration, the mice were returned to breeding cages (individual feeding), pre-weighed food was given, and the food intake 1 day after the initiation of the administration was measured. The food intake was calculated by subtracting the weight of the food remaining from the weight of the food given on the day the administration was initiated. Based on the calculated food intake, the anorectic ratio (%) of each test compound was calculated using the following formula. […] The group where only the solvent was administered as described above was used as a control group. Food Intake Inhibition (%): {(food intake of the control group−food intake of a test compound administration group)/food intake of the control group}×100

cynomolgus monkeys = experiment: Single subcutaneous administration test in monkeys (emetic response); assay type: in vivo
Method: Single Subcutaneous Administration Test in Monkeys
The emetic response induced by the test compounds was evaluated by the following method.
The test compound C was dissolved in physiological saline at a concentration of 1,000 nmol/kg and the test compound D was dissolved in physiological saline at a concentration of 300 nmol/kg, and used separately. An administration liquid obtained by dissolving each test compound in physiological saline was subcutaneously administered to the back of cynomolgus monkeys (2 males and 2 females each, 3 years and 11 months old to 4 years and 4 months old). After the administration, the animals were immediately returned to their individual cages, and videotaped for 10 hours. Vomiting and dry heaves observed during the videotaping were counted. Vomits were counted as the number of instances of vomiting up to 24 hours after the completion of the videotaping.

T2 sequence (Q9GZQ4 whole entry): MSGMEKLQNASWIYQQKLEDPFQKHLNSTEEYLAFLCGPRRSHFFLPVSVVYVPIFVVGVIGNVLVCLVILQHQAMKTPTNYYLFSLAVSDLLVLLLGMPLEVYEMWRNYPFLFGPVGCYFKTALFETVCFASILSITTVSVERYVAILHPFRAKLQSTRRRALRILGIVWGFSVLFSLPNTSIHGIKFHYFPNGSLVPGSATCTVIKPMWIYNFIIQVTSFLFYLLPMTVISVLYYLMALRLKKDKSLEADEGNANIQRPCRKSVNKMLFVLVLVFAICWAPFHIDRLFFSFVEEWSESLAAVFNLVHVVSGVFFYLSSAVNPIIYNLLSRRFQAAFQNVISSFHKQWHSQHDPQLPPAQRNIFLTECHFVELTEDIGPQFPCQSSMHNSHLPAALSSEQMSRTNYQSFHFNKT

EC50 (human NMUR1) [nM]	EC50 (human NMUR2) [nM]	Substance	Food intake Inhibition (male C57BL/6J mice) [%]	No. of vomiting (0-24 h) (cynomolgus monkeys; 300 nmol/kg single subcutaneous, n = 4 (2 males, 2 females))	emetic response (vomiting), result in words (cynomolgus monkeys; single subcutaneous, C 1,000 nmol/kg, D 300 nmol/kg)
170	5.9	PEG20k(AL)-Acp0,Nal(2)2,NMeAla6-NMU-8 ({PEG20k(AL)-Ahx}-Y[2Nal]LFR[NMeA]RN-NH2) [Compound G, PEG20k(AL)-Acp-Tyr-Nal(2)-Leu-Phe-Arg-NMeAla-Arg-Asn-NH2]	71.4		
> 1000	54	PEG20k(AL)-Pic(4)0,Nal(2)2,NMeAla6-NMU-8 ({PEG20k(AL)-Pic(4)}-Y[2Nal]LFR[NMeA]RN-NH2; reading uncertain) [Compound F, PEG20k(AL)-Pic(4)-Tyr-Nal(2)-Leu-Phe-Arg-NMeAla-Arg-Asn-NH2]	74.3		
> 1000	8.8	PEG20k(AL)-NpipAc0,Nal(2)2,Ala6-NMU-8 ({PEG20k(AL)-Acetyl(2-(piperazin-1-yl))}-Y[2Nal]LFRARN-NH2) [Compound D, PEG20k(AL)-NpipAc-Tyr-Nal(2)-Leu-Phe-Arg-Ala-Arg-Asn-NH2]	70.5	0	prevent vomiting
> 1000	39	PEG20k(AL)-PEG(2)0,Nal(2)2,NMeAla6-NMU-8 ({PEG20k(AL)-PEG(2)}-Y[2Nal]LFR[NMeA]RN-NH2) [PEG20k(AL)-PEG(2)-Tyr-Nal(2)-Leu-Phe-Arg-NMeAla-Arg-Asn-NH2]	68.6		
